Measured values from patent US6730480B1, “Sphingosine kinase enzyme” (Johnson & Johnson Pharmaceutical Research and Development …, priority 1999, dated 2004).

Columns and labels:
[1] = tested on: sphingosine kinase activity in HUVEC; assay: TNFα stimulation of sphingosine kinase activity in HUVEC extracts; type: cell-based, human; settings: TNFα treated HUVEC (untreated HUVEC 78)
Procedure: (§1) Sphingosine kinase activity was routinely determined using D-erythro-sphingosine and [γ^32P]ATP as substrates, essentially as previously described (Olivera et al., 1998) with some modifications. Briefly, assays were performed by incubating samples at 37° C. for 30 min with sphingosine (100 μM stock dissolved in 5% Triton X-100) and [γ-^32P]ATP (1 mM; 10 μCi/ml) in assay buffer containing 100 mM Tris/HCl (pH 7.4), 10 mM MgCl2 10% (v/v) glycerol, 1 mM dithiothreitol, 1 mM EGTA, 1 mM Na3VO4, 15 mM NaF, 0.5 mM 4-deoxypyridoxine in a total volume of 100 μl. Reactions were terminated and sphingosine-1-phosphate extracted by the addition of 700 μl of chloroform/methanol/HCl (100:200:1. v/v), followed by vigorous mixing, addition of 200 μp of chloroform and 200 μl of 2 M KCl, and phase separation by centrifugation. The labeled S1P in the organic phase was isolated by TLC on Silica Gel 60 with 1-butanol/ethanol/acetic acid/water (8:2:1:2, v/v) and quantitated by phosphorimager (Molecular Dynamics. Sunnyvale, Calif.). One unit (U) of activity is defined as 1pmol of S1P formed per minute.
Human umbilical vein endothelial cells (HUVEC) were isolated as previously described (Wall et al., 1978) and cultured on gelatin-coated culture flasks in medium M199 with Earle's salts supplemented with 20% fetal calf serum, 25 μg/ml endothelial growth supplement (Collaborative Research) and 25 μg/ml heparin. […]

[2] = tested on: sphingosine kinase activity in HEK293 cells; assay: Transient expression of hSK and TNFα stimulation of sphingosine kinase activity in HEK293 cells; type: cell-based, human
Procedure: as §1
For mammalian cell expression the hSK cDNA was FLAG epitope tagged at the 3′-end by PFU polymerase PCR with oligonucleotide primers T7 and 5′-[…]-3′ [SEQ ID NO:5]. […] The orientation was determined by restriction analysis and sequencing verified the integrity of the hSK-FLAG cDNA sequence. […]

[3] = substrate: CCCCCCCCCCCCC/C=C/[C@@H](O)[C@@H](N)CO; assay: Sphingosine kinase enzyme assay with native SK purified from human placenta; type: biochemical; settings: other: Native SK, 37.0 °C
Procedure: The substrates examined were added to a final concentration of 100 μM in 0.25% (w/v) Triton X-100, and assayed under the standard assay conditions outlined earlier.
Substrate kinetics were determined by supplying substrates over the concentration range of 0.5 to 200 μM for sphingosine analogues, and 5 to 1000 μM for ATP. Inhibition kinetics were determined by the use of inhibitors over a concentration range of 2 to 50 μM (Table 5). In both cases the data were analysed by non-linear regression.
The effect of metal ions on the activity of the native and recombinant sphingosine kinases were determined by assaying the activity under standard conditions in the presence of various metal ions or EDTA at 10 mM.

[4] = type: physicochemical, human; settings: pH range 4 to 11, 50 mM buffers, 37° C.
Procedure: The effect of pH on the activity of the isolated sphingosine kinases was determined over the pH range 4.0 to 11.0 in 50 mM buffers (sodium acetate, pH 4.0-5.0; Mes, pH 6.0-7.0; Hepes, pH 7.0-8.2; Tris/HCl, pH 8.2-10.0: Caps, pH 10.0-11.0) at 37° C. pH stability was determined by assaying the residual activity after pre-incubation of the enzymes in the same buffers for 5 h at 4° C. Similarly, thermal stabilities were determined by assaying the residual activity after pre-incubation of the enzymes at various temperatures (4-80° C.) for 30 min at pH 7.4 (50 mM Tris/HCl containing 10% glycerol, 0.5 M NaCl and 0.05% Triton X-100). Substrate kinetics were analysed using Michaelis-Menten kinetics with a weighted non-linear regression program (Easterby, 1996). Since sphingosine and its analogues were added to the enzyme assays in mixed micelles with Triton X-100, where they exibit surface dilution kinetics (Buehrer and Bell. 1992), all K, and KC values obtained for these molecules were expressed as mol % of Triton X-100, rather than as bulk solution concentrations. […]
Thermal stabilities of the native and recombinant sphingosine kinases were determined by assaying the residual activity remaining after preincubation of the enzymes at various temperatures (4 to 80° C.) for 30 min at pH 7.4 (50 mM Tris/HCl containing 10% glycerol, 0.5M NaCl and 0.05% Triton X-100). […]

[5] = substrate: CCCCCCCCCCCCC/C=C/[C@@H](O)[C@@H](N)CO; assay: Sphingosine kinase enzyme assay with recombinant human SK expressed in E. coli; type: biochemical; settings: other: Recombinant SK
[6] = sphingosine supplied as a sphingosine-BSA complex
[7] = substrate kinetics, bulk solution concentration

## TNFα
[1]
  Total sphingosine kinase activity in cell extract: 136 U/mg proteins
[2]; hSK-transfected HEK293 cells, TNFα 1 ng/ml, 10 min
  Increase in sphingosine kinase activity after TNFα treatment: approximately 2 fold

B1: native sphingosine kinase (human placenta SK1) (Homo sapiens) (protein)
chain: MDPAGGPRGVLPRPCRVLVLLNPRGGKGKALQLFRSHVQPLLAEAEISFTLMLTERRNHARELVRSEELGRWDALVVMSGDGLMHEVVNGLMERPDWETAIQKPLCSLPAGSGNALAASLNHYAGYEQVTNEDLLTNCTLLLCRRLLSPMNLLSLHTASGLRLFSVLSLAWGFIADVDLESEKYRRLGEMRFTLGTFLRLAALRTYRGRLAYLPVGRVGSKTPASPVVVQQGPVDAHLVPLEEPVPSHWTVVPDEDFVLVLALLHSHLGSEMFAAPMGRCAAGVMHLFYVRAGVSRAMLLRLFLAMEKGRHMEYECPYLVYVPVVAFRLEPKDGKGVFAVDGELMVSEAVQGQVHPNYFWMVSGCVEPPPSWKPQQMPPPEEPL
notes: from tissue; host or cells: human placenta
[3]; [6]
  kcat: 28 s⁻¹
[3]; [7]
  Km: 14 ± 2 µM
  kcat: 50 s⁻¹
  kcat/Km: 3.6e+06 M⁻¹ s⁻¹

B2: native sphingosine kinase: sphingosine kinase SK1 purified to homogeneity from human placenta (protein, UniProt Q9NYA1 1-384, looked up)
Sphingosine kinase 1: MDPAGGPRGVLPRPCRVLVLLNPRGGKGKALQLFRSHVQPLLAEAEISFTLMLTERRNHARELVRSEELGRWDALVVMSGDGLMHEVVNGLMERPDWETAIQKPLCSLPAGSGNALAASLNHYAGYEQVTNEDLLTNCTLLLCRRLLSPMNLLSLHTASGLRLFSVLSLAWGFIADVDLESEKYRRLGEMRFTLGTFLRLAALRTYRGRLAYLPVGRVGSKTPASPVVVQQGPVDAHLVPLEEPVPSHWTVVPDEDFVLVLALLHSHLGSEMFAAPMGRCAAGVMHLFYVRAGVSRAMLLRLFLAMEKGRHMEYECPYLVYVPVVAFRLEPKDGKGVFAVDGELMVSEAVQGQVHPNYFWMVSGCVEPPPSWKPQQMPPPEEPL
[4]
  pH of maximum activity: 7.4

B3: hSK: human sphingosine kinase encoded by the cloned cDNA, SEQ ID NO:2 (protein)
chain: MDPAGGPRGVLPRPCRVLVLLNPRGGKGKALQLFRSHVQPLLAEAEISFTLMLTERRNHARELVRSEELGRWDALVVMSGDGLMHEVVNGLMERPDWETAIQKPLCSLPAGSGNALAASLNHYAGYEQVTNEDLLTNCTLLLCRRLLSPMNLLSLHTASGLRLFSVLSLAWGFIADVDLESEKYRRLGEMRFTLGTFLRLAALRTYRGRLAYLPVGRVGSKTPASPVVVQQGPVDAHLVPLEEPVPSHWTVVPDEDFVLVLALLHSHLGSEMFAAPMGRCAAGVMHLFYVRAGVSRAMLLRLFLAMEKGRHMEYECPYLVYVPVVAFRLEPKDGKGMFAVDGELMVSEAVQGQVHPNYFWMVSGCVEPPPSWKPQQMPPPEEPL
[2]; HEK293 cells, pcDNA3-hSK, versus untransfected or empty vector
  Increase in sphingosine kinase activity on transient expression: 3200 fold

B4: recombinant human sphingosine kinase (Homo sapiens) (protein)
chain: MDPAGGPRGVLPRPCRVLVLLNPRGGKGKALQLFRSHVQPLLAEAEISFTLMLTERRNHARELVRSEELGRWDALVVMSGDGLMHEVVNGLMERPDWETAIQKPLCSLPAGSGNALAASLNHYAGYEQVTNEDLLTNCTLLLCRRLLSPMNLLSLHTASGLRLFSVLSLAWGFIADVDLESEKYRRLGEMRFTLGTFLRLAALRTYRGRLAYLPVGRVGSKTPASPVVVQQGPVDAHLVPLEEPVPSHWTVVPDEDFVLVLALLHSHLGSEMFAAPMGRCAAGVMHLFYVRAGVSRAMLLRLFLAMEKGRHMEYECPYLVYVPVVAFRLEPKDGKGVFAVDGELMVSEAVQGQVHPNYFWMVSGCVEPPPSWKPQQMPPPEEPL
notes: The full length SPHK cDNA cloned into pGEX4T2 was transformed into E. coli BL21; GST (N, cleaved yes); made in house; host or cells: E. coli BL21
[5]; [6]
  kcat: 39 s⁻¹
[5]; [7]
  Km: 12 ± 3 µM
  kcat: 85 s⁻¹
  kcat/Km: 7.1e+06 M⁻¹ s⁻¹

B5: recombinant sphingosine kinase: hSK expressed as GST fusion in E. coli BL21, thrombin-cleaved and purified (protein)
chain: MDPAGGPRGVLPRPCRVLVLLNPRGGKGKALQLFRSHVQPLLAEAEISFTLMLTERRNHARELVRSEELGRWDALVVMSGDGLMHEVVNGLMERPDWETAIQKPLCSLPAGSGNALAASLNHYAGYEQVTNEDLLTNCTLLLCRRLLSPMNLLSLHTASGLRLFSVLSLAWGFIADVDLESEKYRRLGEMRFTLGTFLRLAALRTYRGRLAYLPVGRVGSKTPASPVVVQQGPVDAHLVPLEEPVPSHWTVVPDEDFVLVLALLHSHLGSEMFAAPMGRCAAGVMHLFYVRAGVSRAMLLRLFLAMEKGRHMEYECPYLVYVPVVAFRLEPKDGKGMFAVDGELMVSEAVQGQVHPNYFWMVSGCVEPPPSWKPQQMPPPEEPL
[4]
  pH of maximum activity: 7.4
